Data on two molecules can be found in patent US20040185566A1, “Polypeptides toxic to nematodes and methods of use” (priority 2003, published 2004).

One data set deals with R. similis. Put plainly: Assay for lytic activity against R. similis (microtiter plates). The class given is in vivo. The procedure: The assays were performed in microtiter plates. Ten microliters of R. similissuspensions were placed in microtiter plate wells. Serially diluted SMP #1 (100U in 0.1 ml stock) was added to the wells. PBS was added to a series of wells containing R. similis as a control. The nematodes were stored at 20° C. and examined for lytic effects or death at 48 and 96 hours.

Another data set relates to casein. Description: Proteolytic activity of SMP #1 (casein digestion), pH optimum and activity with detergents/solvents. The class given is biochemical. The procedure:
Proteolytic activity was determined by casein digestion (Kunitz 1947). Substrate consisting of 0.75 ml 1.0% (w/v) casein in 100 mM TRIS/HCL, 1 mM MgCl2 (pH 8) at 30° C. Protease samples (0.1 ml) were brought to 30° C., added to the substrate and incubated at 30° C. After 30 minutes, the reaction was quenched with 0.5ml 10% (w/v) trichloroacetic acid (TCA). After 15 minutes at 25° C., the quenched reaction mixture was centrifuged at 10 000 g for 10 minutes to pellet precipitated protein and the A280 of the supernatant was determined. One unit of proteolytic activity was defined as the amount of enzyme that produced an increase of absorbance at 280 nM of 0.1 under the conditions of the assay.
Several compounds were tested as to characterize the novel protein. Effect of protease inhibitors (30-120 μ/ml antipain dihydrochloride, 1-4 μ/ml aprotinin, 20-80 μg/ml bestatin, 25-50 μg/ml chymostatin, 5-20 μg/ml E-64, 10-60 mM EDTA, 1-74 μg/ml leupeptin, 500-2000 μg/ml Pefabloc SC, 1-4 μ/ml pepstatin, 165-660 μlg/ml phosphoramidon and 100-400 μg/ml PMSF), SDS (0.1%-1%), Tween-20 (0.1%-1%), Triton X-100 (0.1%-1%), ethanol (1%-5%), and 2-mercaptoethanol (0.1%-1%) were determined by addition to the standard reaction mixture. Residual proteolytic activity was determined after incubation at 25° C. for 30 minutes.

A short description of data set [1]: Native isoelectric focusing. The class given is physicochemical. Conditions: polypeptide produced by S. marcescens NRRL B-23112. The procedure:
The isoelectric point (pI) of purified SMP#1 was determined using a vertical mini-gel system (Roberston et al. 1987) and 1.5 mm polyacrylamide gels consisting of 5% (w/v) 30:1 acrylamide/bisacrylamide, 10% (v/v) glycerol and 2% (w/v) pH 4-8 ampholytes. Electrode solutions were cooled to 4° C. prior to electrophoresis. The anode solution was 20 mM acetic acid and the cathode solution was 25 mM NaOH. Samples and protein standards (Sigma) were mixed with an equal volume of 50% (v/v) glycerol and 4%(w/v) ampholytes in the pH range of 4-8. Samples were prepared for isoelectric focusing by concentrating and desalting in a centriprep concentrator (Amicon) with a molecular mass exclusion limit of 10 000 Da. Electrophoresis was at 25° C. and 200 volts for 1.5 hours. The gels were fixed with 10% (w/v) trichloroacetic acid for 10 minutes with gentle agitation. Ampholytes were removed by shaking the gel for 2 hours in 1% (w/v) trichloroacetic acid. After rinsing with Milli-Q-water, the gels were stained with 0.25% (w/v) Coomassie blue R-250 in 45% (v/v) methanol and 10% (v/v) acetic acid for 10 minutes. The gels were destained in 45% (v/v) methanol and 10% (v/v) acetic acid until the background was clear.

Another data set deals with A. suum. Description: Assay for lytic activity against live A. suum. Particulars: for 12 hours Death / 12 hours Lysis / 24 hours Death / 24 hours Lysis: protein conc. 0.1 mg/ml.

Values joined by “and” are separate entries in the source; they are usually repeats but may differ in a detail not shown here. Equal values may be shown once. A value given as a limit tells only on which side of the number the result lay.

B1: SMP #1: serratia metalloprotease isolated from S. marcescens NRRL B-23112, amino acid sequence SEQ ID NO:2; selective nematolytic activity (protein, listed as Serratia marcescens)
chain: MQSTKKAIEITESSLAAATTGYDAVDDLLHYHERGNGIQINGKDSFSNEQAGLFITRENQTWNGYKVFGQPVKLTFSFPDYKFSSTNVAGDTGLSKFSAEQQQQAKLSLQSWADVANITFTEVAAGQKANITFGNYSQDRPGHYDYGTQAYAFLPNTIWQGQDLGGQTWYNVNQSNVKHPATEDYGRQTFTHEIGHALGLSHPGDYNAGEGNPTYNDVTYAEDTRQFSLMSYWSETNTGGDNGGHYAAAPLLDDIAAIQHLYGANLSTRTGDTVYGFNSNTGRDFLSTTSNSQKVIFAAWDAGGNDTFDFSGYTANQRINLNEKSFSDVGGLKGNVSIAAGVTIENAIGGSGNDVIVGNAANNVLKGGAGNDVLFGGGGADELWGGAGKDIFVFSAASDSAPGASDWIRDFQKGIDKIDLSFFNKEAQSSDFIHFVDHFSGTAGEALLSYNASSNVTDLSVNIGGHQAPDFLVKIVGQVDVATDFIVHSNGTPGAVSAGRDA
Consider B1, for which the “Dead (nematodes counted)” value with R. similis (10 U/well, 10 wells, 20° C.) is 298 and 300. Besides, the “% mortality” value with R. similis (10 U/well, 10 wells, 20° C., significant difference (p < 0.05) between treatments) is 99% and 100%. Further, the “lysis / mortality of the nematode on contact” value in the data set on R. similis (R. similis) and in the data set on A. suum (A. suum) was “lyses the nematode” in each case. In addition, the “time until cuticle and body wall are lysed and internal viscera expelled” value in the data set on R. similis (R. similis) and in the data set on A. suum (A. suum) was at most 30 h throughout. Moreover, the “proteolytic activity retained in the presence of additive” value in the data set with casein (2-mercaptoethanol (0.5% v/v)), in the data set on casein (SDS (1% w/v)), in the data set with casein (Triton X-100 (1% w/v)), in the data set on casein (Tween-20 (1% w/v)) and with casein (ethanol (5% v/v)) was “retains full activity” in each case. Also, the “Optimum pH” value in the data set with casein (polypeptide produced by S. marcescens NRRL B-23112) is on record as 10. In data set [1], the Isoelectric point was 6.1. Further, the “12 hours Death” value in the data set on A. suum (10 mM 2-mercaptoethanol) is recorded as “(+)”. For the same molecule, in the data set with A. suum (10 mM 2-mercaptoethanol), the “12 hours Lysis” value is on record as “(+++)”. Moreover, the “24 hours Death” value with A. suum (10 mM 2-mercaptoethanol) is “(+)”. Further, in the data set on A. suum (10 mM 2-mercaptoethanol), the “24 hours Lysis” value was “(+++)”.

B2: papain (protein, UniProt P00784 134-345, looked up)
Papain: IPEYVDWRQKGAVTPVKNQGSCGSCWAFSAVVTIEGIIKIRTGNLNEYSEQELLDCDRRSYGCNGGYPWSALQLVAQYGIHYRNTYPYEGVQRYCRSREKGPYAAKTDGVRQVQPYNEGALLYSIANQPVSVVLEAAGKDFQLYRGGIFVGPCGNKVDHAVAAVGYGPNYILIKNSWGTGWGENGYIRIKRGTGNSYGVCGLYTSSFYPVKN
Take B2: in the data set on A. suum (2-mercaptoethanol 0), the “12 hours Death” value is listed as “(+)”, the “12 hours Lysis” value was “(+++)”, the “24 hours Death” value is given as “(+)” and the “24 hours Lysis” value is on record as “(+++)”.
